Results taken from patent US20200338219A1 (ACTINIUM PHARMACEUTICALS, published 2020).

T1: human CD45 protein, wild-type (WT) construct expressed on HEK-293T cells (human, UniProt P08575 26-1306)
T1 construct: also called target protein (WT); PTPRC
T1 sequence: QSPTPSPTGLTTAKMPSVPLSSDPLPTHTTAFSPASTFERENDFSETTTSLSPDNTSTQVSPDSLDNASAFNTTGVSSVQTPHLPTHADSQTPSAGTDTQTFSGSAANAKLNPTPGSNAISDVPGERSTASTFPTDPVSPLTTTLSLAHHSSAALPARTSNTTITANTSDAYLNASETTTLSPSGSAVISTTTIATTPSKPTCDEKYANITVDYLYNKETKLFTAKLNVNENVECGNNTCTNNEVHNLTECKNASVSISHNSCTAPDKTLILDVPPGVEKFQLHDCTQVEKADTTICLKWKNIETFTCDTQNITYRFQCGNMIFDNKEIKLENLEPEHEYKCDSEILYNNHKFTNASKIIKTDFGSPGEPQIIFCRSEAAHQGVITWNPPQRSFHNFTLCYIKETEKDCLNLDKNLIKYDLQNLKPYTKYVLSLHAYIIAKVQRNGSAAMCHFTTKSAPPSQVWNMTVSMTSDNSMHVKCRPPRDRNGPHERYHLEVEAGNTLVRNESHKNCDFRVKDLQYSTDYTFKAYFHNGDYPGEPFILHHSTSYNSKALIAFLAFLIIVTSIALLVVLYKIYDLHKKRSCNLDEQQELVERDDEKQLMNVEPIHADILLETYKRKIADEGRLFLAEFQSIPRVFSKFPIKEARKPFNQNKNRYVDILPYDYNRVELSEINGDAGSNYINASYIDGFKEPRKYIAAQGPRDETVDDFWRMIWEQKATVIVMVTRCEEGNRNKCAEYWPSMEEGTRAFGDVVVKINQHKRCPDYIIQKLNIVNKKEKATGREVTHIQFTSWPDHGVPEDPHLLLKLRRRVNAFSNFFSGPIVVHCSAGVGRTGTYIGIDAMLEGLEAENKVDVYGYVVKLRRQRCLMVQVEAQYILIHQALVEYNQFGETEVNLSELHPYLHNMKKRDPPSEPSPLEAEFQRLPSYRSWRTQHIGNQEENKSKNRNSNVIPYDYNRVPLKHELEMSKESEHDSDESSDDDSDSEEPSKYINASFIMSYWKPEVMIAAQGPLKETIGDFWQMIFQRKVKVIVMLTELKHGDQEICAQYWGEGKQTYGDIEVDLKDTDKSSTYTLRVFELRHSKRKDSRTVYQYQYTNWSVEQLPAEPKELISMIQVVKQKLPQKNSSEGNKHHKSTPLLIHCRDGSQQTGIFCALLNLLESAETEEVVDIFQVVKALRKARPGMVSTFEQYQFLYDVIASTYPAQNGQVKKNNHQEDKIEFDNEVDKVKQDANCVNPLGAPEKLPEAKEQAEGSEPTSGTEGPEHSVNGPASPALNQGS

B1: murine anti-CD45 monoclonal antibody BC8 (antibody, mouse IgG1, kappa, V domains shown)
VH: EVKLLESGGGLVQPGGSLKLSCAASGFDFSRYWMSWVRQAPGKGLEWIGEINPTSSTINFTPSLKDKVFISRDNAKNTLYLQMSKVRSEDTALYYCARGNYYRYGDAMDYWGQGTSVTVSS
VL: DIALTQSPASLAVSLGQRATISCRASKSVSTSGYSYLHWYQQKPGQPPKLLIYLASNLESGVPARFSGSGSGTDFTLNIHPVEEEDAATYYCQHSRELPFTFGSGTKLEIKR
modifications: position 141 is found to be a mixture of ASP and ASN in the purified protein (deamidation of ASN-141)
notes: Purified from hybridoma ATCC HB-10507; also called BC8 MAb; anti-CD45 immunoglobulin BC8
B2: BC8 Fab (Fab, V domains shown)
VH: B1 VH
VL: B1 VL
notes: It was detected with an anti-mouse F(ab')2 secondary antibody; also called Test Fab

Experiments:
[1] = molecular target: T1, human CD45 protein, wild-type (WT) …; assay: high-throughput flow cytometry on HEK-293T cells expressing WT CD45 against vector alone, 5.00 µg/ml
Method: (§1) Cells were transfected with a wild-type (WT) construct of the target protein or with vector alone in 384-well format, followed by detection of cellular expression via high-throughput flow cytometry. Serial dilutions of each MAb were tested for immunoreactivity against cells expressing target protein (WT) or vector alone.

[2] = molecular target: T1, human CD45 protein, wild-type (WT) …; assay: high-throughput flow cytometry on HEK-293T cells expressing WT CD45 against vector alone, 5.0 ug/ml
Method: as §1

Row | Binder | Signal:Background [1] | Signal:Background [2]
1 | B1 | 9 signal:background ratio | 
2 | B2 |  | 6 signal:background ratio
